{"source": "patent US9657062B2", "about": "“Ghrelin analogues” (Zealand Pharma A/S, priority 2012, dated 2017)", "binders": {"B1": {"name": "H-PS-S(O-octyl)-FLSPEHSR-NH2 (peptide)", "peptide": "H-PSS(Octyl)FLSPEHSR-NH2", "SMILES": "CCCCCCCCOC[C@H](NC(=O)[C@H](CO)NC(=O)[C@@H]1CCCN1)C(=O)N[C@@H](Cc1ccccc1)C(=O)N[C@@H](CC(C)C)C(=O)N[C@@H](CO)C(=O)N1CCC[C@H]1C(=O)N[C@@H](CCC(=O)O)C(=O)N[C@@H](Cc1c[nH]cn1)C(=O)N[C@@H](CO)C(=O)N[C@@H](CCCNC(=N)N)C(N)=O"}, "B2": {"name": "H-PS-S(O-octyl)-FLSPEHQRVQQRKESKKPPA-NH2 (peptide)", "peptide": "H-PSS(Octyl)FLSPEHQRVQQRKESKKPPA-NH2", "SMILES": "CCCCCCCCOC[C@H](NC(=O)[C@H](CO)NC(=O)[C@@H]1CCCN1)C(=O)N[C@@H](Cc1ccccc1)C(=O)N[C@@H](CC(C)C)C(=O)N[C@@H](CO)C(=O)N1CCC[C@H]1C(=O)N[C@@H](CCC(=O)O)C(=O)N[C@@H](Cc1c[nH]cn1)C(=O)N[C@@H](CCC(N)=O)C(=O)N[C@@H](CCCNC(=N)N)C(=O)N[C@H](C(=O)N[C@@H](CCC(N)=O)C(=O)N[C@@H](CCC(N)=O)C(=O)N[C@@H](CCCNC(=N)N)C(=O)N[C@@H](CCCCN)C(=O)N[C@@H](CCC(=O)O)C(=O)N[C@@H](CO)C(=O)N[C@@H](CCCCN)C(=O)N[C@@H](CCCCN)C(=O)N1CCC[C@H]1C(=O)N1CCC[C@H]1C(=O)N[C@@H](C)C(N)=O)C(C)C"}, "B3": {"name": "H-[cACC]-S(O-octyl)-FLSPEHQRVQQRKESKKPPAKLQPR-NH2 (peptide)", "peptide": "H-[Achc(cis-1,4)]S(Octyl)FLSPEHQRVQQRKESKKPPAKLQPR-NH2", "SMILES": "CCCCCCCCOC[C@H](NC(=O)[C@H]1CC[C@@H](N)CC1)C(=O)N[C@@H](Cc1ccccc1)C(=O)N[C@@H](CC(C)C)C(=O)N[C@@H](CO)C(=O)N1CCC[C@H]1C(=O)N[C@@H](CCC(=O)O)C(=O)N[C@@H](Cc1c[nH]cn1)C(=O)N[C@@H](CCC(N)=O)C(=O)N[C@@H](CCCNC(=N)N)C(=O)N[C@H](C(=O)N[C@@H](CCC(N)=O)C(=O)N[C@@H](CCC(N)=O)C(=O)N[C@@H](CCCNC(=N)N)C(=O)N[C@@H](CCCCN)C(=O)N[C@@H](CCC(=O)O)C(=O)N[C@@H](CO)C(=O)N[C@@H](CCCCN)C(=O)N[C@@H](CCCCN)C(=O)N1CCC[C@H]1C(=O)N1CCC[C@H]1C(=O)N[C@@H](C)C(=O)N[C@@H](CCCCN)C(=O)N[C@@H](CC(C)C)C(=O)N[C@@H](CCC(N)=O)C(=O)N1CCC[C@H]1C(=O)N[C@@H](CCCNC(=N)N)C(N)=O)C(C)C"}, "B4": {"name": "H-PS-S(O-octyl)-FLSPEHQRVQQRKES-NH2 (peptide)", "peptide": "H-PSS(Octyl)FLSPEHQRVQQRKES-NH2", "SMILES": "CCCCCCCCOC[C@H](NC(=O)[C@H](CO)NC(=O)[C@@H]1CCCN1)C(=O)N[C@@H](Cc1ccccc1)C(=O)N[C@@H](CC(C)C)C(=O)N[C@@H](CO)C(=O)N1CCC[C@H]1C(=O)N[C@@H](CCC(=O)O)C(=O)N[C@@H](Cc1c[nH]cn1)C(=O)N[C@@H](CCC(N)=O)C(=O)N[C@@H](CCCNC(=N)N)C(=O)N[C@H](C(=O)N[C@@H](CCC(N)=O)C(=O)N[C@@H](CCC(N)=O)C(=O)N[C@@H](CCCNC(=N)N)C(=O)N[C@@H](CCCCN)C(=O)N[C@@H](CCC(=O)O)C(=O)N[C@@H](CO)C(N)=O)C(C)C"}}, "note": "*1 amine or outer side, *2 acyl side, *3 side chain or, on linkers, in order; H or OH if unused. [ ]: non-standard residue; d: D form. The star is where a group is joined. Achc(cis-1,4) = O=C([C@H]1CC[C@@H](N[*:1])CC1)[*:2]; Octyl = CCCCCCCC*"}
{"target": "human growth hormone secretagogue receptor type 1a (human, UniProt Q92847 1-366)", "sequence (Q92847 whole entry)": "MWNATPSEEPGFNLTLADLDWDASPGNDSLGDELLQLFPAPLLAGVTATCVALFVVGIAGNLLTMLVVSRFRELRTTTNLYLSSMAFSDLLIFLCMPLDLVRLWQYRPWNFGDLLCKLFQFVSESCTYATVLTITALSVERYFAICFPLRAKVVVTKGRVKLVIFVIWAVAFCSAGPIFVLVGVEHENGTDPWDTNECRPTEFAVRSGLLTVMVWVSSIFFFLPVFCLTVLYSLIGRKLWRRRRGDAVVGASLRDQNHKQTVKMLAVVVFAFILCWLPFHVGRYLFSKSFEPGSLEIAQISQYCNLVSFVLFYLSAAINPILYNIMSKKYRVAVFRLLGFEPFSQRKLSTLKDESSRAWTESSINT", "assay": "cell-based or functional assay", "units": {"EC50 (nM); Ca2+ induction in HEK293 cells stably expressing the human ghrelin receptor": "nM"}}
{"binder": "H-PS[NH‑CH(n-C10H21)‑C(O)]FLSPEHQRVQRKESKKPPAKLQPR-NH2", "note": "[H-PS-[NH-CH(n-C10H21)-C(O)]-FLSPEHQRVQRKESKKPPAKLQPR-NH2]", "EC50 (nM); Ca2+ induction in HEK293 cells stably expressing the human ghrelin receptor": 0.23}
{"binder": "B1", "EC50 (nM); Ca2+ induction in HEK293 cells stably expressing the human ghrelin receptor": 0.44}
{"binder": "B2", "EC50 (nM); Ca2+ induction in HEK293 cells stably expressing the human ghrelin receptor": 0.231}
{"binder": "H-PS[NH‑CH(n-C10H21)‑C(O)]FLSPEHQRVQQRKESKKPPAKLQPR-NH2", "note": "[H-PS-[NH-CH(n-C10H21)-C(O)]-FLSPEHQRVQQRKESKKPPAKLQPR-NH2]", "EC50 (nM); Ca2+ induction in HEK293 cells stably expressing the human ghrelin receptor": 0.333}
{"binder": "B3", "EC50 (nM); Ca2+ induction in HEK293 cells stably expressing the human ghrelin receptor": 0.271}
{"binder": "B4", "EC50 (nM); Ca2+ induction in HEK293 cells stably expressing the human ghrelin receptor": 0.221}
